# Measurements reported in the supplement of paper PMC9170038.
# Key:
# [1] = system: MS2 coat protein; experiment: apparent KD of MS2 coat protein, switch OFF state (with FMN for OFF switches, without FMN for ON switches); designed switch direction (-1 OFF switch, 1 ON switch): -1; higher = weaker reporter binding; conditions: FMN input: 0 or 200 uM; Eterna round: R93 (includes R88 designs)
# How it was run: (§1)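 The buffer was 100 mM Tris-HCl pH 7.5 with 80 mM KCl and 4 mM MgCl2, used without or with constant ligand. In it, RNA switches transcribed on-chip from Illumina sequencing clusters were titrated with SNAP-549-labelled MS2 coat protein in twofold steps from 0.7 or 1.5 nM to 3 µM. Apparent KD for each design is the median of its normalised cluster binding-curve fits.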
# [2] = system: MS2 coat protein; experiment: apparent KD of MS2 coat protein, switch ON state; designed switch direction (-1 OFF switch, 1 ON switch): -1; higher = weaker reporter binding; conditions: FMN input: 0 or 200 uM; Eterna round: R93 (includes R88 designs)
# How it was run: as §1
Sequence,apparent KD of MS2 coat protein [1],apparent KD of MS2 coat protein [2]
AUAAGUGCAGGAUAUACGAAAAGCUAGCGAAAGCUAGCGGGACAUGAGGAUCACCCAUGUAGAAGGGCACAAUA [Tetraloop hairpin BlockHead... 61% 6],50.3 nM,25 nM
AUAAUGUGAGGAUAUACAUGAGGAUCACCCAUGUAAUUAAAAAGGAGAGACACAAUUCGUAGAAGGUACAUUUA [JR_Exc003_Sub509],26.3 nM,23.4 nM
AUAAUGUGAGGAUAUACAUGAGGAUCACCCAUGUAAUUAAAUAGGAGAGACACAAUUCGUAGAAGGUACAUUUA [JR_Exc003_Sub508],27.7 nM,29.4 nM
AUAGGCCUAGGAUAUACAUGAGGAUCACCCAUGUAAAUAAAUCGAUCAUGAUAAACGUGUAGAAGGAGGAAUAA [JR_Exc003_Sub206],39.5 nM,28.8 nM
AUAGGCCUAGGAUAUACAUGAGGAUCACCCAUGUUAACACUGCAAUCAAGUUAAUAUUGUAGAAGGAGGAAUAA [JR_Exc003_Sub310],26.1 nM,26.3 nM
AUAGGCCUAGGAUAUACAUGAGGAUCACCCAUGUUAAUACUUCAAUCAAGAUAAAAGUGUAGAAGGAGGAAUAA [JR_Exc003_Sub306],30.9 nM,26.7 nM
AUAGUACAUGAGGAUCACCCAUGUCAGGAUAUCGGAUAUGACAUGAAAAAAAUGUUAACGAGAAGGGACUAUAA [EX1 Malc#18],49.8 nM,44.3 nM
AUAGUACAUGAGGAUCACCCAUGUCAGGAUAUCGGAUGUGACAUGAAAAAAAUGUUAGUGAGAAGGGACUAUAA [EX1 Malc#18 Mod 3 - Jieux - Exclusion 1],111 nM,66.9 nM
AUCAUGUUAGGAUAUACAAGAAAAGAAAAGAAAGAAAAGAAGUAGAAGGAACAUGAGGAUCACCCAUGUAAGAA [EteRNA is fun!],32.3 nM,23.6 nM
AUCAUGUUAGGAUAUUUAAGAAAAGAAAAGAAAGAAAAGAAAAAGAAGGAACAUGAGGAUCACCCAUGUAAGAA [EteRNA is fun!],22 nM,27.5 nM
AUCUACCUAGGAUAUACAUGAGGAUCACCCAUGUACAGAUACAACAAGGGAAACACACGUAGAAGGAGGAAGAU [JR_Exc003_Sub1206],60.8 nM,25.8 nM
AUCUAGUCAGGAUAUGACUACAUAAAAAAAAAAAAAUGUAGUCAGAAGGGACAUGAGGAUCACCCAUGUACUAA [HSL_Exclusion 4 64% 1],24.8 nM,37.3 nM
AUCUAGUGAGGAUAUCGUACAAUAUGGAAAACAUAGAGGUACGAGAAGGCACAUGAGGAUCACCCAUGUAAAAC [May 100],36.5 nM,26.8 nM
AUCUUGUCAGGAUAUCGUACAAUAUGGAAAACAUAGAGGUACGAGAAGGGACAUGAGGAUCACCCAUGUAAAAC [May 98],73.7 nM,59.5 nM
AUGAGAGCAGGAUAUGCAGGUGUGCCGGAAGAAAGAAGAAGACAUGAGGAUCACCCAUGUAGAAGGGCUAGCCC [Bibidi],18.5 nM,30 nM
AUGUAGGUAGGAUAUACAUGGAUAUACAUUCAUGUGGACCUACAUGAGGAUCACCCAUGUAGAAGGACCUAAAA [Mat - Same state - Mayanna Mod - D128],39.4 nM,45 nM
CAAAGGUGAGGAUAUACAAAAAAAUGACGAAAGUCAUCCACACAUGAGGAUCACCCAUGUAGAAGGCACCACAA [E2 64% 6],29.2 nM,30 nM
CAAAGGUGAGGAUAUACAUAACUAUGACGAAAGUCAUAAAAACAUGAGGAUCACCCAUGUAGAAGGCACCACAA [E2 64% 1],31.3 nM,38.1 nM

Sequence,apparent KD of MS2 coat protein [1],apparent KD of MS2 coat protein [2]
CAAAGGUGAGGAUAUGCAUAACUAUGACGAAAGUCAUAAACACAUGAGGAUCACCCAUGUAGAAGGCACCACAA [e2-2],18.8 nM,37.2 nM
CAAAGUGGAGGAUAUACAUGAGGAUCACCCAUGUAAGGACAAUAAAUAAGAAGAAGAAGUAGAAGGCCACUCAA [e3-2],40.2 nM,28.9 nM
CACAAGUCAGGAUAUUCGACAAGUAAAUCAGUAGAUCAAAAGAAGAAGGGACAUGAGGAUCACCCAUGUAAAUA [JR_Exc004_Sub402],22.3 nM,39.1 nM
CACGGACAUGAGGAUCACCCAUGUGAGGAUAUGCUCUACGAACGUUUUCCCACGAGAAGCAGAAGGCACAUUUC [try 2],90.8 nM,42.6 nM
CACGUACAUGAGGAUCACCCAUGUUAGGAUAUGCCGGGUAAGAGAAAACAAAAAAUCAGCAGAAGGGACGAAAC [Bilbo Confounded 17 - Jieux - Exclusion 1],31.8 nM,34.1 nM
CAGUACUGAGGAUAUACAUGAGGAUCACCCAUGUAUCCAAGCUAGGAAACUAGCAAAUGUAGAAGGCAGUACUG [Ex3: 821],319 nM,37.5 nM
CAGUACUGAGGAUAUACAUGAGGAUCACCCAUGUAUCCUAGCUAGGAAACUAGCAAAAGUAGAAGGCAGUACUG [Ex3: 819],118 nM,13.5 nM
CAGUACUGAGGAUAUACAUGAGGAUCACCCAUGUGGUCAAGCUACGAAAGUAGCAAAAGUAGAAGGCAGUACUG [Ex3: 811],34.6 nM,209 nM
CAGUACUGAGGAUAUACAUGAGGAUCACCCAUGUGUUCCAGCUAGGAAACUAGCAAAUGUAGAAGGCAGUACUG [Ex3: 827],85.8 nM,183 nM
CGCUAGUCAGGAUAUACAAACAUGUCAAAAGACGUGAAAAAACAUGAGGAUCACCCAUGUAGAAGGGACUAGCG [Mat - Exclusion 2 - JL mod - D18],17.7 nM,15.7 nM
CGCUAGUCAGGAUAUACGAACAUGUCAAAAGACGUGAAGGGACAUGAGGAUCACCCAUGUAGAAGGGACUAGCG [Mat - Exclusion 2 - JL mod - D4],131 nM,30.2 nM
CUCAAGUCAGGAUAUAAAAGAAAAGAAGAGAAAGAAAAGAAUUAGAAGGGACAUGAGGAUCACCCAUGUAAGAA [EteRNA is fun!],60.6 nM,66.9 nM
CUCAAGUUAGGAUAUUGAAGAAAAGAAGAGAAAGAAAAGAACAAGAAGGAACAUGAGGAUCACCCAUGUAAGAA [EteRNA is fun!],21.8 nM,22.9 nM
CUCAUGUAAGGAUAUCAGUAGUAAAAAAAUAAAAUUACUACUGAGAAGGUACAUGAGGAUCACCCAUGUCCGGG [EX4 374: Super Stable 74],18.3 nM,21.7 nM
CUCAUGUGAGGAUAUGUACAGAAAAAAAUGGGUGAAACUGUACAGAAGGCACAUGAGGAUCACCCAUGUGAAAA [EX4 378: S S Pseudoknot 3],21.1 nM,26.1 nM
CUCUAGUCAGGAUAUACAAGAAAAGAAAAGAAAGAAAAGAAGUAGAAGGGACAUGAGGAUCACCCAUGUAAGAA [EteRNA is fun!],91.5 nM,70.4 nM
CUCUAGUGAGGAUAUGCAAGAAAAGAAGAGAAAGAAAAGAAGCAGAAGGCACAUGAGGAUCACCCAUGUAAGAA [EteRNA is fun!],71.8 nM,32.4 nM
